Residue numbers refer to the chain shown, from its start. Square brackets hold non-standard residues; d marks the D form. Ends that are not written are not given here. pY = N[C@@H](Cc1ccc(OP(=O)(O)O)cc1)C(=O)O

From PMC7327521 (Journal of Molecular Biology, 2020) come the findings set out here.

What all share (experiment): fluorescence polarisation
Assay [1] has as its target T1, Spt6-tSH2 R1281A/S1283A/R1285A (C. glabrata, UniProt Q6FLB1 1250-1444, R1281A | S1283A | R1285A).
T1 sequence (looked up): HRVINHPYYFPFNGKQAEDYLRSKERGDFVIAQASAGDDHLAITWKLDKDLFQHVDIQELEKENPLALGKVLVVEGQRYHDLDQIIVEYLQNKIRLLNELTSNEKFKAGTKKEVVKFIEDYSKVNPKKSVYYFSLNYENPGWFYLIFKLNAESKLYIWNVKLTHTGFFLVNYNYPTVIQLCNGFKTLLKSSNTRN

A further assay has as its target T2, Spt6-tSH2 R1285A (C. glabrata, UniProt Q6FLB1 1250-1444, R1285A).
T2 sequence (looked up): T1 sequence (looked up) with A32R, A34S

Another assay has as its target T3, Spt6-tSH2 K1360A (C. glabrata, UniProt Q6FLB1 1250-1444, K1360A).
T3 sequence (looked up): T1 sequence (looked up) with A32R, A34S, A36R, K111A

For another assay, the target named is T4, Spt6-tSH2 R1281A/S1283A (C. glabrata, UniProt Q6FLB1 1250-1444, R1281A | S1283A).
T4 sequence (looked up): T1 sequence (looked up) with A36R

The target of assay [2] is T5, Spt6 from S. cerevisiae lacking the first unstructured 297 residues (Spt6ΔN) (S. cerevisiae, UniProt P23615 298-1451).
T5 sequence (looked up): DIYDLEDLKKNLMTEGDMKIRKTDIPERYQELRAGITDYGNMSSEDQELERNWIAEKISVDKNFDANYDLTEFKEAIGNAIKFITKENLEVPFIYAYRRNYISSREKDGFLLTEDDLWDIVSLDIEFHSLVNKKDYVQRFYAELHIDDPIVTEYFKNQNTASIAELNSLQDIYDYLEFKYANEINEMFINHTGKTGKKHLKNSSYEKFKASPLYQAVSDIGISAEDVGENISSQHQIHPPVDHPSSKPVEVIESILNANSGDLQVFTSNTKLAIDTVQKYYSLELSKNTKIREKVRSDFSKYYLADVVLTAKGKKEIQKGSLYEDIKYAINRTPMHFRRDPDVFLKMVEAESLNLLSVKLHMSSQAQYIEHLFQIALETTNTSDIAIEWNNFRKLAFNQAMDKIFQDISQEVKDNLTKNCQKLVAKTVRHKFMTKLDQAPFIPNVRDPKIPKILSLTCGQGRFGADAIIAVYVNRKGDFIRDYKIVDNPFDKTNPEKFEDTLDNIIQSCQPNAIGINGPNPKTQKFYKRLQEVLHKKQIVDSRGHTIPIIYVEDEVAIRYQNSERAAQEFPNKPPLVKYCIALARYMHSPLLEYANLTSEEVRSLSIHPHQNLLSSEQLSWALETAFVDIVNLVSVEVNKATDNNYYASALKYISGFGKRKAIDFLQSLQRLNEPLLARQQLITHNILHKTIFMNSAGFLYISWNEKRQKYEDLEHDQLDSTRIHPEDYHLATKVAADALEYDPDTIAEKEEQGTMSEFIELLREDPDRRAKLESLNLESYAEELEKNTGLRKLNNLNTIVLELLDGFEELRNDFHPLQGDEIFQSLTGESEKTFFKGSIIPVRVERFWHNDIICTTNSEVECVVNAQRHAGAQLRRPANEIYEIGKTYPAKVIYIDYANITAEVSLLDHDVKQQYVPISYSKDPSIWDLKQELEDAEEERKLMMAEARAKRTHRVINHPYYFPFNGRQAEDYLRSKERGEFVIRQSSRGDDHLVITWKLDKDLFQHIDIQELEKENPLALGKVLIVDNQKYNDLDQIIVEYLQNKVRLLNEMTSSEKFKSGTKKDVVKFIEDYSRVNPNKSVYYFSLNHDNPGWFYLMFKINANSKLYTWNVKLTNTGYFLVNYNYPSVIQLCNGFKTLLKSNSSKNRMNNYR

B1: (pY1-CTD)2, FAM-labelled tyrosine-phosphorylated CTD diheptad (peptide)
peptide: {5,6‑FAM}-PS[pY]SPTSPS[pY]SPTSPS
For the molecule B1, the Kd in assay [1] was 16.5 µM; with Spt6-tSH2 R1285A it was 12 µM; in the assay with Spt6-tSH2 K1360A it was 12.4 µM; with Spt6-tSH2 R1281A/S1283A, 35.5 µM; in assay [2], 4 ± 0.5 µM.
